Test results from US20260062488A1 (AbbVie / Abbott, published 2026).
Numbering of substitutions follows the chain as printed. Blank lines part the entries; values can stand above or below the binder they belong to.

Assays:
human α4β7 integrin [1] = molecular target: T1, human α4β7 integrin (human, UniProt P13612 34-1032; P26010 20-798); assay: blockade of MAdCAM-1 mediated HuT78 cell adhesion
T1 construct: also called hα4β7; a4b7

cynomolgus α4β7 integrin [2] = molecular target: T2, cynomolgus α4β7 integrin (cynomolgus monkey); assay: blockade of CHOK1/cα4β7 adhesion to MAdCAM-1
T2 construct: whole, on cells; On CHOK1-cα4β7 cells or cynomolgus blood lymphocytes; also called cα4β7; cyno α4β7

human α4β7 integrin [3] = molecular target: T1, human α4β7 integrin; assay: FACS on α4β7-expressing HuT78 cells
human α4β7 integrin [4] = molecular target: T1, human α4β7 integrin; assay: FACS titration on BaF3-hα4β7
human α4β7 integrin [5] = molecular target: T1, human α4β7 integrin; assay: FACS, primary human CD4+ memory T cells
human α4β7 integrin [6] = molecular target: T1, human α4β7 integrin; assay: blockade of HuT78 cell adhesion to plate-bound MAdCAM-1, representative experiment; the two IC50 lines under the plot bear no name: the lower one is given to Ab-m1, whose curve lies left of Ab-Vedo's (midpoint near log -2.1 ug/ml)
human α4β7 integrin [7] = molecular target: T1, human α4β7 integrin; assay: MadCAM-1/HuT78 potency (adhesion blockade), summary table
cynomolgus α4β7 integrin [8] = molecular target: T2, cynomolgus α4β7 integrin; assay: blockade of CHOK1-cα4β7 cell adhesion to MAdCAM-1
human α4β7 integrin [9] = molecular target: T1, human α4β7 integrin; assay: inhibition of MAdCAM-1 binding to human CD4+CD45RO+ T cells
cynomolgus α4β7 integrin [10] = molecular target: T2, cynomolgus α4β7 integrin; assay: MadCAM-1/cα4β7 potency (adhesion blockade), summary table
cynomolgus α4β7 integrin [11] = molecular target: T2, cynomolgus α4β7 integrin; assay: blockade of CHOK1-cα4β7 cell adhesion to MAdCAM-1, representative experiment; the two IC50 lines under the plot bear no name: the lower one is given to Ab-m1, whose curve lies clearly left of Ab-Vedo's (midpoint near log -1.6 ug/ml)
human α4β7 integrin [12] = molecular target: T1, human α4β7 integrin; assay: blockade of HuT78 cell adhesion to MAdCAM-1
human α4β7 integrin [13] = molecular target: T1, human α4β7 integrin; assay: row IC50 (pM) HuT78 of the binning table (assay not explained, presumably adhesion to MAdCAM-1)
human α4β7 integrin [14] = molecular target: T1, human α4β7 integrin; assay: blockade of HuT78 cell adhesion to MAdCAM-1; remark: listed apart in the source
cynomolgus α4β7 integrin [15] = molecular target: T2, cynomolgus α4β7 integrin; assay: blockade of CHOK1-cα4β7 cell adhesion to MAdCAM-1; remark: listed apart in the source
human α4β7 integrin [16] = molecular target: T1, human α4β7 integrin; assay: FACS binding, human CD4+CD45RO+ T cells, summary table
cynomolgus α4β7 integrin [17] = molecular target: T2, cynomolgus α4β7 integrin; assay: ratio of cyno to human adhesion-blockade potency, summary table
human α4β7 integrin [18] = molecular target: T1, human α4β7 integrin; assay: FACS, primary human CD4+ memory T cells (CD4+CD45RO+), one whole blood

B1: Ab-h1.5 (antibody, human IgG1, V domains shown)
VH: EVQLVQSGAEVKKPGSSVKVSCTTSGFNIKNTYMHWVKQRPGQGLEWIGRIDPANGHTEYAPKFQGKATITADESTNTAYLELSSLRSEDTAVYYCYYVDSWGQGTTVTVSS
VL: DIQMTQSPSSLSASVGDRVTITCHASQGISDNIGWLQQKPGKSFKGLIYHGTNLEDGVPSRFSGSGSGADYTLTISSLQPEDFATYYCVQYAQFPWTFGGGTKVEIKR
IC50 (human α4β7 integrin [1]): 0.0091 nM

B2: Ab-h1.9 (antibody, human IgG1, V domains shown)
VH: B1 VH with T23K, T24A, K38R, R40A, K67R, A68V, L81M
VL: DIQMTQSPSSLSASVGDRVTITCHASQGISDNIGWLQQKPGKSFKLLIYHGTNLEDGVPSRFSGSGSGTDYTLTISSLQPEDFATYYCVQYAQFPWTFGGGTKVEIK
notes: Humanized, human IgG1 and kappa constant regions; also called Ab-H1.9 (parental)
IC50 (cynomolgus α4β7 integrin [2]): 0.0365 nM | IC50 (human α4β7 integrin [1]): 0.0114 nM

B6: Ab-h1.8 (antibody, human IgG1, V domains shown)
VH: B1 VH with T23K, T24A, K38R, R40A, K67R, A68V, L81M
VL: B1 VL
IC50 (human α4β7 integrin [1]): 0.0138 nM

B7: Ab-h1.6 (antibody, human IgG1, V domains shown)
VH: B1 VH
VL: B2 VL
IC50 (human α4β7 integrin [1]): 0.0081 nM

B9: Ab-c1 (antibody, human IgG1, V domains shown)
VH: EVQLQQSVAELVRPGASVKLSCTTSGFNIKNTYMHWVKQRPKQGLEWIGRIDPANGHTEYAPKFQGKATITADTSSNTAYLHLSSLTSDDTAIYYCYYVDSWGQGTTLTVSS
VL: DILMTQSPSSMSVSLGDTVSITCHASQGISDNIGWLQQRPGKSFKGLIYHGTNLEDGVPSRFSGSGSGADYSLTISSLESEDFADYYCVQYAQFPWTFGGGTTLEIK
notes: Ab-m1's variable regions with human IgG1/k constant regions; also called murine-human chimera Ab-c1; Chimeric anti-human α4β7 [hu IgG1/k
EC50 (human α4β7 integrin [18]): 0.0039 nM | IC50 (cynomolgus α4β7 integrin [8]): 0.0864 nM | IC50 (human α4β7 integrin [14]): 0.0137 nM

Further lines, results first:

binding result (human α4β7 integrin [3]): binds
B3: Ab-h1.9a (antibody, V domains shown)
VH: B1 VH with T23K, T24A, K38R, R40A, G56K, Q65L, K67R, A68V, L81M, D100A
VL: B2 VL with G28E
notes: Liability-engineered clone converted to IgG format [hu IgG1/k]; constant regions of the tested mAb not specified

binding result (human α4β7 integrin [3]): binds
B4: Ab-h1.9e (antibody, V domains shown)
VH: B1 VH with T23K, T24A, K38R, R40A, N55G, Q65I, K67R, A68V, L81M, D100A
VL: B2 VL with G28E
notes: as for B3

binding result (human α4β7 integrin [3]): binds
B5: Ab-h1.9b (antibody, V domains shown)
VH: B1 VH with T23K, T24A, K38R, R40A, N55R, Q65S, K67R, A68V, L81M, S101Q
VL: B2 VL with G28D
notes: as for B3

EC50 (human α4β7 integrin [4]): 0.474 nM | EC50 (human α4β7 integrin [5]): 0.0098 nM | IC50 (human α4β7 integrin [6]): 0.0511 nM | IC50 (human α4β7 integrin [7]): 0.0555 nM | IC50 (cynomolgus α4β7 integrin [8]): 0.0658 nM | IC50 (human α4β7 integrin [9]): 0.0637 nM | IC50 (cynomolgus α4β7 integrin [10]): 0.201 nM | IC50 (cynomolgus α4β7 integrin [11]): 0.165 nM | IC50 (human α4β7 integrin [12]): 0.0555 nM | IC50 (human α4β7 integrin [13]): 0.0447 nM | IC50 (human α4β7 integrin [14]): 0.0228 nM | IC50 (cynomolgus α4β7 integrin [15]): 0.201 nM | EC50 (human α4β7 integrin [16]): 0.0098 nM | Cyno x-reactivity (cynomolgus α4β7 integrin [17]): 4 fold
B8: Ab-m1 (antibody, V domains shown)
VH: B9 VH
VL: B9 VL
notes: Hybridoma antibody, mouse IgG1/kappa; also called murine antibody Ab-m1; Mouse anti-human α4β7 [mu IgG1/k
